Experimental data taken from patent publication US9120851B2, “Human antibodies to human angiopoietin-like protein 4” (Regeneron Pharmaceuticals, Inc., priority 2009, dated 2015).

Tested on: C57BL/6 mice given hANGPTL4-mFc
Format: in vivo
Details: antibody 5 mg/kg s.c.; 24 h later hANGPTL4-mFc 25 μg/mouse i.v.; bled 30 min after; mean±SEM
Description: In another set of experiments, selected anti-hANGPTL4 antibodies were tested for their ability to inhibit hANGPTL4-induced increase of triglyceride levels. Measurements of total cholesterol, LDL, NEFA-C and HDL were also made. Briefly, C57BL/6 mice were put into groups of five mice each for each antibody tested. Antibodies were administered at 5 mg/kg dose by subcutaneous injection. Control group I, i.e., mice that received neither anti-hANGPTL4 antibodies nor hANGPTL4, were administered with PBS. Twenty-four hours post-injection of antibody, hANGPTL4-mFc (SEQ ID NO:480) was administered (i.v.) at a dose of 25 μg/mouse to each antibody group. Mice were bled at 30 min after hANGPTL4-mFc injection and lipid levels were determined by ADVIA® 1650 Chemistry System (Siemens). Averages were calculated for each of the measurements of triglycerides, total cholesterol (Total-C), LDL, NEFA-C and HDL for each antibody or control group. Levels of circulating anti-hANGPTL4 antibodies (Serum Ab) were also determined using a standard ELISA assay. Briefly, plates were coated with a goat anti-human Fc antibody (Sigma-Aldrich) to capture Serum Ab. Serum was then added to the plates and captured anti-hANGPTL4 antibodies were detected by chemiluminescence using a horseradish peroxidase (HRP) conjugated goat anti-human IgG antibody (Sigma-Aldrich). Control I: Mice that received PBS, but neither anti-hANGPTL4 antibodies nor hANGPTL4-mFc. Control II: Mice that received a human antibody specific for CD20 (i.e., the mAb having the sequence of 2F2 clone disclosed in US 2008/0260641) and hANGPTL4-mFc.

Molecule	HDL	LDL	NEFA-C	Total-C	Triglycerides
H1H653P: anti-hANGPTL4 antibody, HCVR/LCVR SEQ ID NOs 306/308 (antibody, V domains shown) VH: QVQLVESGGGVVQPGRSLRLSCVASGFTFSSYGMHWVRQAPGKGLEWMAVIWYDGSNKYFADSVKDRFTISRDNSKNTLYLQMNTLRPDDTAVYYCVKADAPLLIYGVDVWGQGTTVTVS VL: DIQMTQSPSSLSASVGDRVTITCRASQGIRNDLGWYQEKPGKAPKRLIYFASSLQSGVPSRFSGSGSGTEFTLTISSLQPEDFATYYCLQHNSYPYTFGQGTKLEIK	40.10 ± 2.72 mg/dL	3.84 ± 0.32 mg/dL	1.04 ± 0.1 mg/dL	74.20 ± 4.49 mg/dL	88.00 ± 13.52 mg/dL
H1H257P: anti-hANGPTL4 antibody, HCVR/LCVR SEQ ID NOs 18/20 (antibody, V domains shown) VH: EVQLVESGGGLVQPGGSLRLSCAASGFTFSSYDMHWVRQVAGKGLEWVSAIGTAGDTYYPVSVKGRFTISRENAKNSLYLHMNSLRAGDTAVYFCARGDSRNYYVGDYFDYWGQGTLVTVSS VL: DIQMTQSPSTLSASVGDRVTITCRASQSISRWLAWYQQKPGKAPKVLIYQASNLESGVPSRFSGSGSGTEFTLTISSLQPDDFATYYCQQYDSYSRAFGRGTKVEIK	41.38 ± 3.24 mg/dL	5.30 ± 0.36 mg/dL	0.97 ± 0.03 mg/dL	84.40 ± 3.53 mg/dL	115.80 ± 6.43 mg/dL
H1H638P: anti-hANGPTL4 antibody, HCVR/LCVR SEQ ID NOs 258/260 (antibody, V domains shown) VH: EVQLVESGGGLVQPGGSLRLSCVASGFTFSSYDMHWVRQVAGKGLEWVAAIGTAGDTYYPVSVKGRFTISRENAKNSLSLHMNSLRAGDTAVYYCARGDSRNYYVGDYFDYWGQGTLVTVSS VL: DIQMTQSPSTLSASVGDRVTITCRASQSISRWLAWYQQKPGKAPKVLIYKASSLKSGVPSRFSGSGSGTEFTLTISSLQSDDFATYYCQQYNSYSRTFGQGTKVEIK	39.54 ± 1.65 mg/dL	4.14 ± 0.18 mg/dL	1.06 ± 0.05 mg/dL	73.80 ± 2.78 mg/dL	102.80 ± 10.75 mg/dL
H1H285P: anti-hANGPTL4 antibody, HCVR/LCVR SEQ ID NOs 114/116 (antibody, V domains shown) VH: EVQLVESGGGLVQPGGSLRLSCAASGFTFSRYDMHWVRQVTGKGLEWVSGIGTAGDTYYPGSVKGRFTISRENDKNSLYLQMNSLRVGDTAVYYCARGDSKNYYVGDYFDYWGQGTLVTVSS VL: DIQMTQSPSTLSASVGDRVTFTCRASHSIGNWLAWYQQKPGKAPKVLIYEASSLEDGVPSRFSGSGSGTEFTLTISSLQPDDFATYYCQQYDTYFRTFGQGTKVEIK	42.20 ± 0.91 mg/dL	3.72 ± 0.44 mg/dL	0.97 ± 0.06 mg/dL	76.40 ± 1.75 mg/dL	91.40 ± 11.99 mg/dL
H1H283P: anti-hANGPTL4 antibody, HCVR/LCVR SEQ ID NOs 66/68 (antibody, V domains shown) VH: EVQLVESGGGLVQPGGSLRLSCAASGFTFSSYDMHWVRQVAGKGLEWVSAIGTAGDTYYPVSVKGRFTISRENAKNSLYLHMNSLRAGDTAVYFCARGDSRNYYVGDYFDYWGQGTLVTVSS VL: DIQMTQSPSTLSASVGDRVTITCRASQSISRWLAWYQQKPGKAPKVLIYKASNLESGVPSRFSGSGSGTEFTLTISSLQPDDFATYYCQQYNSYSRTFGQGTKVEIK	40.30 ± 0.72 mg/dL	4.62 ± 0.39 mg/dL	1.13 ± 0.05 mg/dL	75.80 ± 1.53 mg/dL	113.60 ± 8.74 mg/dL
H1H291P: anti-hANGPTL4 antibody, HCVR/LCVR SEQ ID NOs 138/140 (antibody, V domains shown) VH: EVQLVESGGGLVQPGGSLRLSCAASGFTFSTYDMHWVRQGLGKGLEWVSAIGSAGDTYYPGSVKGRFTISRDNAKSSLFLHMNSLRAGDTALYYCARGDSRNYFVGDYFDYWGQGTLVTVSS VL: DIQMTQSPSTLSASIGDRVTITCRASQSISSWLAWYQQKPGKAPKVLIYKASSLEAGVPSRFSGSGSGTEFTLTISSLQPDDFASYYCQQYSSYSRTFGQGTKVEIK	38.24 ± 2.14 mg/dL	3.84 ± 0.12 mg/dL	1.11 ± 0.04 mg/dL	71.20 ± 3.26 mg/dL	111.00 ± 7.51 mg/dL
H1H292P: anti-hANGPTL4 antibody, HCVR/LCVR SEQ ID NOs 162/164 (antibody, V domains shown) VH: EVQLVESGGGLVQPGGSLRLSCVASGFTFSSYDMHWVRQLPGKGLEWVSAIGVAGDTYYPASVKGRFTISRENAKNSLYLQMNSLRAGDTAVYYCARGDSGNYYDGDYFDFWGQGTLVTVSS VL: DIQMTQSPSTLSASVGDRVTITCRASQSINRWLAWYQQKPGKAPKVLIYKASNLESGVPSRFSGSGSGTEFTLTISSLQPDDFATYYCQQYDSYFRTFGQGTKVEIK	39.44 ± 1.68 mg/dL	3.96 ± 0.15 mg/dL	1.06 ± 0.06 mg/dL	74.40 ± 2.11 mg/dL	85.80 ± 7.00 mg/dL
H1H236N2: anti-hANGPTL4 antibody, HCVR/LCVR SEQ ID NOs 458/394 (antibody, V domains shown) VH: EVQLVESGGGLVQPGRSLRLSCAASGFTFDDYAMHWVRQAPGKGLEWVSGISWNSGSIVYADSVKGRFTISRDNAKNSLYLQMNSLISEDTALYYCAKDESSSSGNWFDPWGQGTLVTVSS VL: EVVMTQSPATLSVSPGERATLSCRASQSVSSNLAWYQQKPGQAPRLLIYGASTRATGIPARFSGSGSGTEFTLTISSLQSEDFAVYYCQEYNNWITFGQGTRLEIK	33.78 ± 1.13 mg/dL	4.26 ± 0.25 mg/dL	1.11 ± 0.18 mg/dL	72.40 ± 1.81 mg/dL	151.80 ± 9.26 mg/dL
H1H295P: anti-hANGPTL4 antibody, HCVR/LCVR SEQ ID NOs 186/188 (antibody, V domains shown) VH: EVQLVESGGGLVQPGGSLRLSCAASGFTFSTYDMHWVRQAPGKGLEWVSAIGSAGDTYYPGSVKGRFTISRDNAKSSLFLQMNSLRAGDTALYYCARGDSRNYFVGDYFDYWGQGTLVTVSS VL: DIQMTQSPSTLSASVGDRVTITCRASQSIGTWLAWYQQKPGKAPKILIYKASSLEGGVPSRFSGSGSGTEFTLTISSLQPDDFANYYCQQYNSFYRTFGQGTKVEIK	39.70 ± 3.13 mg/dL	4.04 ± 0.40 mg/dL	1.12 ± 0.04 mg/dL	74.60 ± 4.82 mg/dL	104.80 ± 9.44 mg/dL
H1H624P: anti-hANGPTL4 antibody, HCVR/LCVR SEQ ID NOs 210/212 (antibody, V domains shown) VH: EVQLVESGGGLVQPGGSLRLSCAASEFIFSSYAMNWVRQAPGKGLEWVSVISGSGDSKYYADSVKGRFTISRDNSKNTLYLQMNSLRVEDTAVYYCAKDGKDRYGFYYNFYGMDVWGQGTTVTVS VL: DIQMTQSPSFLSASVGDRVTITCWASQGISSYLAWYQQKPGKAPKILIYAASTLQSGVPSRFSASGSGTEFTLTISSLQPEDFATYHCQQLNSYPFTFGPGTKVDIK	35.40 ± 2.68 mg/dL	4.36 ± 0.92 mg/dL	0.86 ± 0.07 mg/dL	72.80 ± 5.49 mg/dL	81.20 ± 9.26 mg/dL
